How the values were obtained:
Experiment in all cases: purified protein
purified protein [1] = substrate: NC(=O)c1ccc[n+]([C@@H]2O[C@H](COP(=O)(O)OP(=O)(O)OC[C@H]3O[C@@H](n4cnc5c(N)ncnc54)[C@H](O)[C@@H]3O)[C@@H](O)[C@H]2O)c1; assay type: biochemical, Rhodococcus erythropolis; details: oxidation; 50 mM (2R,3R)-2,3-butanediol; 50 mM CAPS pH 10.0, 45 °C; pH 10.0; 45.0 °C; varied: cofactor
purified protein [2] = substrate: NC(=O)C1=CN([C@@H]2O[C@H](COP(=O)(O)OP(=O)(O)OC[C@H]3O[C@@H](n4cnc5c(N)ncnc54)[C@H](O)[C@@H]3O)[C@@H](O)[C@H]2O)C=CC1; assay type: biochemical, Rhodococcus erythropolis; details: reduction; 50 mM diacetyl; 50 mM PIPES pH 6.5, 55 °C; pH 6.5; 55.0 °C; varied: cofactor
purified protein [3] = substrate: CC(=O)C(C)=O; assay type: biochemical, Rhodococcus erythropolis; details: reduction; 0.4 mM NADH; 50 mM PIPES pH 6.5, 55 °C (swapped); pH 6.5; 55.0 °C
purified protein [4] = substrate: C[C@@H](O)[C@@H](C)O; details: oxidation, 0.64 mM NAD+, 50 mM CAPS pH 10.0, 45 °C (b26 prints the pH and temperature of the two directions swapped)

B1: ReBDH (Rhodococcus erythropolis PR4) (protein)
chain: MKAARFHGQKDIRIEEIPEPELRPGTVKLKVAWCGICGTDLHEYLEGPIFISAPGHPHPLSHENAPVTMGHEFSGTVEEVGEGVTDVEVGENVVVEPYFVCNECAPCKAGNYHLCTKMGFIGLAGGGGGLSEKVVVDRRWIHKIGNIPLDEAALIEPLSVAHHAVVRSGAESGNVAIVGGAGPIGLLVAAVLKGLGVTTIVTELSEARKAKALSSGVADYVIDPTTEDVKARVLELSGGIGADIGFECAGVNAVLDTMLDTVRPAGVVVNVSIWGKPATIDMQKLVLKEIDLRGTIAYVRDHEAVIKMVQDGVVDLAPFITGRIQLEELISEGFTTLIEHNDTAVKILVRS
notes: full length, 351 residues, deduced 37180 Da; N-terminal His-tag (pEASY-E1) kept, E. coli BL21(DE3), Ni-NTA; native 45 kDa monomer
Km (purified protein [1]): 1040 ± 110 µM | Vmax (purified protein [1]): 16 µmol/min/mg | kcat (purified protein [1]): 10.3 ± 0.69 s⁻¹ | kcat/Km (purified protein [1]): 9880 ± 1780 M⁻¹ s⁻¹ | Km (purified protein [2]): 80 ± 10 µM | Vmax (purified protein [2]): 8.92 µmol/min/mg | kcat (purified protein [2]): 5.73 ± 0.08 s⁻¹ | kcat/Km (purified protein [2]): 71600 ± 10100 M⁻¹ s⁻¹ | Km (purified protein [3]): 100 ± 10 µM | Vmax (purified protein [3]): 9.49 µmol/min/mg | kcat (purified protein [3]): 6.11 ± 0.14 s⁻¹ | kcat/Km (purified protein [3]): 61100 ± 7650 M⁻¹ s⁻¹ | Km (purified protein [4]): 580 ± 50 µM | Vmax (purified protein [4]): 6.65 µmol/min/mg | kcat (purified protein [4]): 4.28 s⁻¹ | kcat/Km (purified protein [4]): 7380 M⁻¹ s⁻¹

— publication PMC6272300, “Characterization of a (2R,3R)-2,3-Butanediol Dehydrogenase from Rhodococcus erythropolis WZ010” (Molecules, 2015)
